Our source for the t1/2 of dissociation values is publication doi:10.1101/2021.04.08.439061.

No end group written: not given here. *: point of attachment. 5FAM = O=C1OC2(c3ccc(O)cc3Oc3cc(O)ccc32)c2ccc(C(=O)*)cc21

This assay deals with HLA-A*03:01 (recombinant soluble heavy chain with β2-microglobulin) (human). In words: fluorescence polarisation. (In general: Polarisation of emitted light reports the rotation of a fluorescent probe.)

With AHHGK(5FAM)WTTK [pWT peptide fluorescently labeled at P5 (5-carboxyfluorescein-modified lysine in place of P5 Gly)], the t1/2 of dissociation turned out to be 4.68 min.
